# Reference: article PMC12416549 (2024)
# T1: TNFR1 (Homo sapiens, UniProt P19438)
# T1 chain: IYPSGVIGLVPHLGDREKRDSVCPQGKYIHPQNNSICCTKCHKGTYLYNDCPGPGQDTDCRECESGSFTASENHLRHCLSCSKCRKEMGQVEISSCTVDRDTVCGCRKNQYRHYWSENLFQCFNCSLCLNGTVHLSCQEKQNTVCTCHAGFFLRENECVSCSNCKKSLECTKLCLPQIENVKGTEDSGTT
# Target: T1, TNFR1
# Experiment: yeast display SC50
row,apparent Kd (screen),Binder
1,490 pM,P79W (designed binder) MTLQELLREEALRRAEAEAFRYALELLAEKFPEQKEYLLDLAEEIESQIRSLSGVDVEDVRKFLDKEWAWVKELLAEHWAELAEVEAARAARLAELRAEVEAKVAA
2,1160 pM,L64I (designed binder) MTLQELLREEALRRAEAEAFRYALELLAEKFPEQKEYLLDLAEEIESQIRSLSGVDVEDVRKFIDKEWAWVKELLAEHPAELAEVEAARAARLAELRAEVEAKVAA
3,3990 pM,A42K (designed binder) MTLQELLREEALRRAEAEAFRYALELLAEKFPEQKEYLLDLKEEIESQIRSLSGVDVEDVRKFLDKEWAWVKELLAEHPAELAEVEAARAARLAELRAEVEAKVAA
4,490 pM,Q4R (designed binder) MTLRELLREEALRRAEAEAFRYALELLAEKFPEQKEYLLDLAEEIESQIRSLSGVDVEDVRKFLDKEWAWVKELLAEHPAELAEVEAARAARLAELRAEVEAKVAA
5,10400 pM,L38E (designed binder) MTLQELLREEALRRAEAEAFRYALELLAEKFPEQKEYELDLAEEIESQIRSLSGVDVEDVRKFLDKEWAWVKELLAEHPAELAEVEAARAARLAELRAEVEAKVAA
6,3990 pM,I45K (designed binder) MTLQELLREEALRRAEAEAFRYALELLAEKFPEQKEYLLDLAEEKESQIRSLSGVDVEDVRKFLDKEWAWVKELLAEHPAELAEVEAARAARLAELRAEVEAKVAA
7,653 pM,A98I (designed binder) MTLQELLREEALRRAEAEAFRYALELLAEKFPEQKEYLLDLAEEIESQIRSLSGVDVEDVRKFLDKEWAWVKELLAEHPAELAEVEAARAARLAELRIEVEAKVAA
8,653 pM,L39V (designed binder) MTLQELLREEALRRAEAEAFRYALELLAEKFPEQKEYLVDLAEEIESQIRSLSGVDVEDVRKFLDKEWAWVKELLAEHPAELAEVEAARAARLAELRAEVEAKVAA
9,1270 pM,L6D (designed binder) MTLQEDLREEALRRAEAEAFRYALELLAEKFPEQKEYLLDLAEEIESQIRSLSGVDVEDVRKFLDKEWAWVKELLAEHPAELAEVEAARAARLAELRAEVEAKVAA
10,142 pM,A106Q (designed binder) MTLQELLREEALRRAEAEAFRYALELLAEKFPEQKEYLLDLAEEIESQIRSLSGVDVEDVRKFLDKEWAWVKELLAEHPAELAEVEAARAARLAELRAEVEAKVAQ
11,16700 pM,L7K (designed binder) MTLQELKREEALRRAEAEAFRYALELLAEKFPEQKEYLLDLAEEIESQIRSLSGVDVEDVRKFLDKEWAWVKELLAEHPAELAEVEAARAARLAELRAEVEAKVAA
12,446 pM,L24T (designed binder) MTLQELLREEALRRAEAEAFRYATELLAEKFPEQKEYLLDLAEEIESQIRSLSGVDVEDVRKFLDKEWAWVKELLAEHPAELAEVEAARAARLAELRAEVEAKVAA
13,13800 pM,L74K (designed binder) MTLQELLREEALRRAEAEAFRYALELLAEKFPEQKEYLLDLAEEIESQIRSLSGVDVEDVRKFLDKEWAWVKEKLAEHPAELAEVEAARAARLAELRAEVEAKVAA
14,653 pM,A83N (designed binder) MTLQELLREEALRRAEAEAFRYALELLAEKFPEQKEYLLDLAEEIESQIRSLSGVDVEDVRKFLDKEWAWVKELLAEHPAELNEVEAARAARLAELRAEVEAKVAA
15,2050 pM,S51E (designed binder) MTLQELLREEALRRAEAEAFRYALELLAEKFPEQKEYLLDLAEEIESQIRELSGVDVEDVRKFLDKEWAWVKELLAEHPAELAEVEAARAARLAELRAEVEAKVAA
16,539 pM,E25L (designed binder) MTLQELLREEALRRAEAEAFRYALLLLAEKFPEQKEYLLDLAEEIESQIRSLSGVDVEDVRKFLDKEWAWVKELLAEHPAELAEVEAARAARLAELRAEVEAKVAA
17,446 pM,L96N (designed binder) MTLQELLREEALRRAEAEAFRYALELLAEKFPEQKEYLLDLAEEIESQIRSLSGVDVEDVRKFLDKEWAWVKELLAEHPAELAEVEAARAARLAENRAEVEAKVAA
18,490 pM,R50Q (designed binder) MTLQELLREEALRRAEAEAFRYALELLAEKFPEQKEYLLDLAEEIESQIQSLSGVDVEDVRKFLDKEWAWVKELLAEHPAELAEVEAARAARLAELRAEVEAKVAA

row,apparent Kd (screen),Binder
1,593 pM,A94D (designed binder) MTLQELLREEALRRAEAEAFRYALELLAEKFPEQKEYLLDLAEEIESQIRSLSGVDVEDVRKFLDKEWAWVKELLAEHPAELAEVEAARAARLDELRAEVEAKVAA
2,9410 pM,A19W (designed binder) MTLQELLREEALRRAEAEWFRYALELLAEKFPEQKEYLLDLAEEIESQIRSLSGVDVEDVRKFLDKEWAWVKELLAEHPAELAEVEAARAARLAELRAEVEAKVAA
3,593 pM,D56E (designed binder) MTLQELLREEALRRAEAEAFRYALELLAEKFPEQKEYLLDLAEEIESQIRSLSGVEVEDVRKFLDKEWAWVKELLAEHPAELAEVEAARAARLAELRAEVEAKVAA
4,13800 pM,D40I (designed binder) MTLQELLREEALRRAEAEAFRYALELLAEKFPEQKEYLLILAEEIESQIRSLSGVDVEDVRKFLDKEWAWVKELLAEHPAELAEVEAARAARLAELRAEVEAKVAA
5,10400 pM,E10R (designed binder) MTLQELLRERALRRAEAEAFRYALELLAEKFPEQKEYLLDLAEEIESQIRSLSGVDVEDVRKFLDKEWAWVKELLAEHPAELAEVEAARAARLAELRAEVEAKVAA
6,8560 pM,Y37Q (designed binder) MTLQELLREEALRRAEAEAFRYALELLAEKFPEQKEQLLDLAEEIESQIRSLSGVDVEDVRKFLDKEWAWVKELLAEHPAELAEVEAARAARLAELRAEVEAKVAA
7,869 pM,V57Q (designed binder) MTLQELLREEALRRAEAEAFRYALELLAEKFPEQKEYLLDLAEEIESQIRSLSGVDQEDVRKFLDKEWAWVKELLAEHPAELAEVEAARAARLAELRAEVEAKVAA
8,1270 pM,L41P (designed binder) MTLQELLREEALRRAEAEAFRYALELLAEKFPEQKEYLLDPAEEIESQIRSLSGVDVEDVRKFLDKEWAWVKELLAEHPAELAEVEAARAARLAELRAEVEAKVAA
9,446 pM,P79E (designed binder) MTLQELLREEALRRAEAEAFRYALELLAEKFPEQKEYLLDLAEEIESQIRSLSGVDVEDVRKFLDKEWAWVKELLAEHEAELAEVEAARAARLAELRAEVEAKVAA
10,869 pM,A42N (designed binder) MTLQELLREEALRRAEAEAFRYALELLAEKFPEQKEYLLDLNEEIESQIRSLSGVDVEDVRKFLDKEWAWVKELLAEHPAELAEVEAARAARLAELRAEVEAKVAA
11,1050 pM,V60D (designed binder) MTLQELLREEALRRAEAEAFRYALELLAEKFPEQKEYLLDLAEEIESQIRSLSGVDVEDDRKFLDKEWAWVKELLAEHPAELAEVEAARAARLAELRAEVEAKVAA
12,653 pM,A69V (designed binder) MTLQELLREEALRRAEAEAFRYALELLAEKFPEQKEYLLDLAEEIESQIRSLSGVDVEDVRKFLDKEWVWVKELLAEHPAELAEVEAARAARLAELRAEVEAKVAA
13,790 pM,K72L (designed binder) MTLQELLREEALRRAEAEAFRYALELLAEKFPEQKEYLLDLAEEIESQIRSLSGVDVEDVRKFLDKEWAWVLELLAEHPAELAEVEAARAARLAELRAEVEAKVAA
14,490 pM,A83R (designed binder) MTLQELLREEALRRAEAEAFRYALELLAEKFPEQKEYLLDLAEEIESQIRSLSGVDVEDVRKFLDKEWAWVKELLAEHPAELREVEAARAARLAELRAEVEAKVAA
15,653 pM,P79F (designed binder) MTLQELLREEALRRAEAEAFRYALELLAEKFPEQKEYLLDLAEEIESQIRSLSGVDVEDVRKFLDKEWAWVKELLAEHFAELAEVEAARAARLAELRAEVEAKVAA
16,10400 pM,A28W (designed binder) MTLQELLREEALRRAEAEAFRYALELLWEKFPEQKEYLLDLAEEIESQIRSLSGVDVEDVRKFLDKEWAWVKELLAEHPAELAEVEAARAARLAELRAEVEAKVAA
17,718 pM,A19H (designed binder) MTLQELLREEALRRAEAEHFRYALELLAEKFPEQKEYLLDLAEEIESQIRSLSGVDVEDVRKFLDKEWAWVKELLAEHPAELAEVEAARAARLAELRAEVEAKVAA
